Among the data in patent US20240034786A1 (WUXI BIOLOGICS IRELAND, published 2024) are Kd and EC50 values, retold here.

Experiment [1] has as its target T1, Human P-cadherin on cells (human, UniProt P22223 108-829).
T1 construct: whole, on cells; Endogenous P-cadherin on tumour cell lines; also called hPro1
The experiment can be described thus: FACS affinity test on DU-145 cells. How it is done:
Antibodies to be tested were serially diluted in 1×PBS/1% BSA and incubated with cells at 4° C. for 1 h. The plates were centrifuged and the supernatant was discarded. The cells were then incubated with Alexa647 conjugated goat anti-human IgG Fc (Jackson) at 4° C. in the dark for 30 min. After washing the cells were re-suspended in 100 μL 1×PBS/1% BSA, and fluorescence intensity was measured by flow cytometry (BD Canto II) and analyzed by FlowJo. The fluorescence intensity was converted to bound molecules/cell based on the quantitative beads standard curve (Quantum™ MESF Kits, Bangs Laboratories). KD was calculated by Graphpad Prism5.

The target in experiment [2] is T1, Human P-cadherin on cells. The experiment is described as follows: FACS on HCT-116 cells, antibody kept in human serum at 37 C, Day 1. As to the method: The antibody stability in human serum was tested by FACS. Briefly, human serum was freshly isolated by centrifuging the fresh blood twice at 4000 rpm for 10 minutes. […] As a control, antibodies serum mix was frozen immediately without 37° C. incubation. For the FACS analysis, the samples from different time points were free-thawed simultaneously at 4° C. […] The cells were washed twice with 1% BSA/1×PBS (Ca+/Mg+). Alexa647 conjugated Goat anti-human IgG Fc (Jackson, #109-605-098) 1:500 diluted in 1% BSA/1×PBS (Ca+/Mg+) were added to the cells and incubated at 4° C. for 30 minutes. Cells were washed twice in the same buffer and the mean fluorescence (MFI) of stained cells was measured using a FACS Canto II cytometer (BD Biosciences) and analyzed by FlowJo. Wells containing no antibody or secondary antibody only were used to establish background fluorescence. Four-parameter non-linear regression analysis was used to obtain EC50 values for cell binding using GraphPad Prism6 software.

What is called Kd is a measure of binding affinity in units of concentration. A low value points to tighter binding. By EC50 is commonly meant the concentration giving half of the maximal effect. A lower EC50 goes with a more potent agent.

T1 sequence (P22223 108-829): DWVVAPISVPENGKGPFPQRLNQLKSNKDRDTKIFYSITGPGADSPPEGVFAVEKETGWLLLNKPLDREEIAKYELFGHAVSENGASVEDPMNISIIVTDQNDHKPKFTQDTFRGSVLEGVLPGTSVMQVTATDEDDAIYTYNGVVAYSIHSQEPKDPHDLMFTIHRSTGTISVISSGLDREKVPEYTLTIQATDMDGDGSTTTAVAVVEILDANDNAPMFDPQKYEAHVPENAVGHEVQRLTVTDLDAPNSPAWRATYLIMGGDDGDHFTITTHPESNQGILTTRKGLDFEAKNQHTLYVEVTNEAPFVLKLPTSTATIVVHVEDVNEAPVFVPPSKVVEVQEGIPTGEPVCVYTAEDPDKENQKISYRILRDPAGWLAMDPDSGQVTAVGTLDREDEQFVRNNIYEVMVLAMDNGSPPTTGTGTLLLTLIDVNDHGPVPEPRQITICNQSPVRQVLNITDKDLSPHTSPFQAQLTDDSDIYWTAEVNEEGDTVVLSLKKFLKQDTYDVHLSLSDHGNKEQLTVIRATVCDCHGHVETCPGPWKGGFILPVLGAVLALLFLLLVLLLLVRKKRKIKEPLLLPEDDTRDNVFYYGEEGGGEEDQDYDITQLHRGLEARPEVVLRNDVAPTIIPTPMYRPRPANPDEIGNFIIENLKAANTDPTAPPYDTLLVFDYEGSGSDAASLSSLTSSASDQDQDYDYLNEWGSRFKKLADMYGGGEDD

B1: W3195-1.53.1-p1-uIgG1L (antibody)
heavy: not shown
light: SYELTQPPSVSVSPGQTAQITCSGDKLGDKFASWYQQKSGQSPVVVIYQDNKRPSGFPERFSGSNSGNTATLTISGTQAMDEADYYCQAWDSSIVVFGGGTKLTVLGQPKAAPSVTLFPPSSEELQANKATLVCLISDFYPGAVTVAWKADSSPVKAGVETTTPSKQSNNKYAASSYLSLTPEQWKSHRSYSCQVTHEGSTVEKTVAPTECS
notes: also called W3195-p1 antibody
B1 returned a Kd in experiment [1] of 0.034 nM. In experiment [2], this molecule registered an EC50 of 0.19 nM.
